# Source: US20020064802
# Read-outs that look alike come from different tables or passages of the source.
# Legend:
# [1] = test system: GATA 15.5 ZFP (NLS-ZFP-VP16-FLAG) (synthetic construct (SP1 backbone)); conditions: ChIP anti-FLAG, 293 cells, GAPDH-normalized; 1.9 in Table 7; control ZFP
# [2] = test system: VEGF 3a/1 ZFP (NLS-ZFP-VP16-FLAG) (synthetic construct (SP1 backbone)); conditions: ChIP anti-FLAG, 293 cells, GAPDH-normalized; 170.4 in Table 7
# [3] = test system: GATA 15.5 ZFP (NLS-ZFP-VP16-FLAG) (synthetic construct (SP1 backbone)); assay: cell_activity; conditions: 293 cells
# [4] = test system: VEGF 3a/1 ZFP (NLS-ZFP-VP16-FLAG) (synthetic construct (SP1 backbone)); assay: cell_activity; conditions: 293 cells
# [5] = test system: VEGF 3a/1 ZFP (NLS-ZFP-VP16-FLAG) (synthetic construct (SP1 backbone)); conditions: ChIP anti-FLAG, 293 cells, GAPDH-normalized
# [6] = test system: GATA 15.5 ZFP (NLS-ZFP-VP16-FLAG) (synthetic construct (SP1 backbone)); conditions: ChIP anti-FLAG, 293 cells, GAPDH-normalized; designed for a different site
substance,measurement,setting,value
GGGGAGGATCGCGGAGGCTT (double strand),binding signal (fold enrichment vs NVF),[1],0.88
same,binding signal (fold enrichment vs NVF),[2],74.1
same,activity (fold luciferase vs NVF),"[3]; integrated reporter, 1 in Table 8",0.8
same,activity (fold luciferase vs NVF),"[4]; integrated reporter, 10 in Table 8",18
GGGGAGGATCGCGGAGGCTT (double strand) [endogenous VEGF-A gene target at +1 accessible region],binding signal (fold enrichment vs NVF),[5],12.1
same,activity (fold VEGF mRNA vs NVF),"[4]; VEGF protein 1.2, mRNA 1.0 and protein 1.5 in Table 9",1.6
endogenous VEGF-A gene (GATA 15.5 bound site not mapped),binding signal (fold enrichment vs NVF),[6],4.1
same,activity (fold VEGF mRNA vs NVF),"[3]; VEGF protein 1.2, mRNA 2.0 and protein 2.0 in Table 9",2
